Data published in PMC6843132, “The Plant NF-Y DNA Matrix In Vitro and In Vivo”.

Tests used:
[1] = target: T1, AtNF-YA6;AtNF-YB2;AtNF-YC3 (Arabidopsis thaliana;Arabidopsis …, UniProt Q9LVJ7;Q9FGJ3;Q9ZVL3 170-237;24-116;55-148, ||); assay: EMSA; 12 mM Tris-HCl pH 8.0, 50 mM NaCl, 50 mM KCl, 5 mM MgCl2, 0.5 mM EDTA, 12% glycerol, 0.2 mg/mL BSA, 2.5 mM DTT, 100 ng poly(dA:dT), 20 nM Cy5 probe, 30 C 30 min; 6% PAGE in 0.25X TBE; settings: protein: recombinant;recombinant;recombinant; tags: 6His;6His removed by thrombin;; copies: 1;1;1; label: Cy5 5'
[2] = target: AtNF-YA2;AtNF-YB2;AtNF-YC3 (Arabidopsis thaliana;Arabidopsis …, UniProt Q9M9X4;Q9FGJ3;Q9ZVL3 134-207;24-116;55-148, ||); assay: EMSA; efficiency similar to NF-YA6 trimer; 12 mM Tris-HCl pH 8.0, 50 mM NaCl, 50 mM KCl, 5 mM MgCl2, 0.5 mM EDTA, 12% glycerol, 0.2 mg/mL BSA, 2.5 mM DTT, 100 ng poly(dA:dT), 20 nM Cy5 probe, 30 C 30 min; 6% PAGE in 0.25X TBE; settings: protein: recombinant;recombinant;recombinant; tags: 6His;6His removed by thrombin;; copies: 1;1;1; label: Cy5 5'
[3] = target: T1, AtNF-YA6;AtNF-YB2;AtNF-YC3; assay: competition EMSA; similar rates, WT A least preferred; 12 mM Tris-HCl pH 8.0, 50 mM NaCl, 50 mM KCl, 5 mM MgCl2, 0.5 mM EDTA, 12% glycerol, 0.2 mg/mL BSA, 2.5 mM DTT, 100 ng poly(dA:dT), 20 nM Cy5 probe, 30 C 30 min; 6% PAGE in 0.25X TBE; settings: protein: recombinant;recombinant;recombinant; tags: 6His;6His removed by thrombin;; copies: 1;1;1
[4] = target: T1, AtNF-YA6;AtNF-YB2;AtNF-YC3; assay: competition EMSA; purines preferred at +2; 12 mM Tris-HCl pH 8.0, 50 mM NaCl, 50 mM KCl, 5 mM MgCl2, 0.5 mM EDTA, 12% glycerol, 0.2 mg/mL BSA, 2.5 mM DTT, 100 ng poly(dA:dT), 20 nM Cy5 probe, 30 C 30 min; 6% PAGE in 0.25X TBE; settings: protein: recombinant;recombinant;recombinant; tags: 6His;6His removed by thrombin;; copies: 1;1;1
[5] = target: T1, AtNF-YA6;AtNF-YB2;AtNF-YC3; assay: competition EMSA; preferred over WT; 12 mM Tris-HCl pH 8.0, 50 mM NaCl, 50 mM KCl, 5 mM MgCl2, 0.5 mM EDTA, 12% glycerol, 0.2 mg/mL BSA, 2.5 mM DTT, 100 ng poly(dA:dT), 20 nM Cy5 probe, 30 C 30 min; 6% PAGE in 0.25X TBE; settings: protein: recombinant;recombinant;recombinant; tags: 6His;6His removed by thrombin;; copies: 1;1;1
[6] = target: T1, AtNF-YA6;AtNF-YB2;AtNF-YC3; assay: competition EMSA; better than WT; 12 mM Tris-HCl pH 8.0, 50 mM NaCl, 50 mM KCl, 5 mM MgCl2, 0.5 mM EDTA, 12% glycerol, 0.2 mg/mL BSA, 2.5 mM DTT, 100 ng poly(dA:dT), 20 nM Cy5 probe, 30 C 30 min; 6% PAGE in 0.25X TBE; settings: protein: recombinant;recombinant;recombinant; tags: 6His;6His removed by thrombin;; copies: 1;1;1
[7] = target: T1, AtNF-YA6;AtNF-YB2;AtNF-YC3; assay: competition EMSA; higher affinity; 12 mM Tris-HCl pH 8.0, 50 mM NaCl, 50 mM KCl, 5 mM MgCl2, 0.5 mM EDTA, 12% glycerol, 0.2 mg/mL BSA, 2.5 mM DTT, 100 ng poly(dA:dT), 20 nM Cy5 probe, 30 C 30 min; 6% PAGE in 0.25X TBE; settings: protein: recombinant;recombinant;recombinant; tags: 6His;6His removed by thrombin;; copies: 1;1;1
[8] = target: T1, AtNF-YA6;AtNF-YB2;AtNF-YC3; assay: competition EMSA; equal to WT; 12 mM Tris-HCl pH 8.0, 50 mM NaCl, 50 mM KCl, 5 mM MgCl2, 0.5 mM EDTA, 12% glycerol, 0.2 mg/mL BSA, 2.5 mM DTT, 100 ng poly(dA:dT), 20 nM Cy5 probe, 30 C 30 min; 6% PAGE in 0.25X TBE; settings: protein: recombinant;recombinant;recombinant; tags: 6His;6His removed by thrombin;; copies: 1;1;1
[9] = target: T1, AtNF-YA6;AtNF-YB2;AtNF-YC3; assay: competition EMSA; highest affinity at -3; 12 mM Tris-HCl pH 8.0, 50 mM NaCl, 50 mM KCl, 5 mM MgCl2, 0.5 mM EDTA, 12% glycerol, 0.2 mg/mL BSA, 2.5 mM DTT, 100 ng poly(dA:dT), 20 nM Cy5 probe, 30 C 30 min; 6% PAGE in 0.25X TBE; settings: protein: recombinant;recombinant;recombinant; tags: 6His;6His removed by thrombin;; copies: 1;1;1
[10] = target: T1, AtNF-YA6;AtNF-YB2;AtNF-YC3; assay: competition EMSA; 12 mM Tris-HCl pH 8.0, 50 mM NaCl, 50 mM KCl, 5 mM MgCl2, 0.5 mM EDTA, 12% glycerol, 0.2 mg/mL BSA, 2.5 mM DTT, 100 ng poly(dA:dT), 20 nM Cy5 probe, 30 C 30 min; 6% PAGE in 0.25X TBE; settings: protein: recombinant;recombinant;recombinant; tags: 6His;6His removed by thrombin;; copies: 1;1;1

T1 sequence (Q9LVJ7 170-237, chain 1 of 3): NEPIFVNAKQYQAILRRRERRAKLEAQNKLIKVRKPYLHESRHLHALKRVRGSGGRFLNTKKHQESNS
T1 sequence (Q9FGJ3 24-116, chain 2 of 3): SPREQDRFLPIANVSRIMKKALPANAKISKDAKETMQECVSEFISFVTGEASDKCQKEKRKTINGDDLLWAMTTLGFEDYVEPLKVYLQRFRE
T1 sequence (Q9ZVL3 55-148, chain 3 of 3): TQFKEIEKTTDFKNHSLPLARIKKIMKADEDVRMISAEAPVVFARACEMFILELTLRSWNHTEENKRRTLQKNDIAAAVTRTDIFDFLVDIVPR
Chain of AtNF-YA2;AtNF-YB2;AtNF-YC3 (Q9M9X4 134-207, chain 1 of 3): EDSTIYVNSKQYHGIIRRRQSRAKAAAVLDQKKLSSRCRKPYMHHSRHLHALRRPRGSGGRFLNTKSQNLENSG
Chain of AtNF-YA2;AtNF-YB2;AtNF-YC3 (Q9FGJ3 24-116, chain 2 of 3): as the sequence (Q9FGJ3 24-116, chain 2 of 3) above
Chain of AtNF-YA2;AtNF-YB2;AtNF-YC3 (Q9ZVL3 55-148, chain 3 of 3): as the sequence (Q9ZVL3 55-148, chain 3 of 3) above

B1: CAB2 (-65) CCAAT 31 bp probe (dsDNA)
DNA 1: CTTAAAATCCAATGAATGAACAGATAAAGAT
DNA 2: ATCTTTATCTGTTCATTCATTGGATTTTAAG
- binding result [1]: binds
- binding result [2]: binds

B2: CAB2 A15C (dsDNA)
DNA 1: CTTAAAATCCAATGACTGAACAGATAAAGAT
DNA 2: ATCTTTATCTGTTCAGTCATTGGATTTTAAG
- binding result [3]: binds

B3: CAB2 A15T (dsDNA)
DNA 1: CTTAAAATCCAATGATTGAACAGATAAAGAT
DNA 2: ATCTTTATCTGTTCAATCATTGGATTTTAAG
- binding result [3]: binds

B4: CAB2 A14G (dsDNA)
DNA 1: CTTAAAATCCAATGGATGAACAGATAAAGAT
DNA 2: ATCTTTATCTGTTCATCCATTGGATTTTAAG
- binding result [4]: binds

B5: CAB2 G13C (dsDNA)
DNA 1: CTTAAAATCCAATCAATGAACAGATAAAGAT
DNA 2: ATCTTTATCTGTTCATTGATTGGATTTTAAG
- binding result [5]: binds

B6: CAB2 A6C (dsDNA)
DNA 1: CTTAAACTCCAATGAATGAACAGATAAAGAT
DNA 2: ATCTTTATCTGTTCATTCATTGGAGTTTAAG
- binding result [6]: binds

B7: CAB2 T16A (dsDNA)
DNA 1: CTTAAAATCCAATGAAAGAACAGATAAAGAT
DNA 2: ATCTTTATCTGTTCTTTCATTGGATTTTAAG
- binding result [7]: binds

B8: CAB2 A15G (dsDNA)
DNA 1: CTTAAAATCCAATGAGTGAACAGATAAAGAT
DNA 2: ATCTTTATCTGTTCACTCATTGGATTTTAAG
- binding result [3]: binds

B9: CAB2 T7G (dsDNA)
DNA 1: CTTAAAAGCCAATGAATGAACAGATAAAGAT
DNA 2: ATCTTTATCTGTTCATTCATTGGCTTTTAAG
- binding result [5]: binds

B10: CAB2 A6T (dsDNA)
DNA 1: CTTAAATTCCAATGAATGAACAGATAAAGAT
DNA 2: ATCTTTATCTGTTCATTCATTGGAATTTAAG
- binding result [8]: binds

B11: CAB2 A5T (dsDNA)
DNA 1: CTTAATATCCAATGAATGAACAGATAAAGAT
DNA 2: ATCTTTATCTGTTCATTCATTGGATATTAAG
- binding result [9]: binds

B12: CAB2 A6G (dsDNA)
DNA 1: CTTAAAGTCCAATGAATGAACAGATAAAGAT
DNA 2: ATCTTTATCTGTTCATTCATTGGACTTTAAG
- binding result [6]: binds

B13: CAB2 T7A (dsDNA)
DNA 1: CTTAAAAACCAATGAATGAACAGATAAAGAT
DNA 2: ATCTTTATCTGTTCATTCATTGGTTTTTAAG
- binding result [5]: binds

B14: CAB2 WT competitor 31 bp (dsDNA)
DNA 1: CTTAAAATCCAATGAATGAACAGATAAAGAT
DNA 2: ATCTTTATCTGTTCATTCATTGGATTTTAAG
- binding result [10]: binds
